Source: a protein production outcome set (Wang et al. 2014)

Test: label from the status in PepcDB records

Row | Sequence | protein production
1 | MKNSNRLIYTDNLEESLEETASLFEHHIKFYTEIIEKDKKVIKTFNKDFKIEHAKEVISKAHLKHSELNAFLIAAPSYGIEAQNALLKILEEPPNNVCFIMFAKSQNHVLATIKSRLIKEDKRQKIPLKPLDLDLSKLDLKDIYAFLKNLDKENFDSRENQRERIESLLESVNRHKIPLNEQELQAFDLAIKANSSYYKLSYNLLPLLLSLLSKKKTP | failed
2 | MKNTELEQLINEKLNSAAISDYAPNGLQVEGKETVQKIVTGVTASQALLDEAVRLGADAVIVHHGYFWKGESPVIRGMKRNRLKTLLANDINLYGWHLPLDAHPELGNNAQLAALLGITVMGEIEPLVPWGELTMPVPGLELASWIEARLGRKPLWCGDTGPEVVQRVAWCTGGGQSFIDSAARFGVDAFITGEVSEQTIHSAREQGLHFYAAGHHATERGGIRALSEWLNENTDLDVTFIDIPNPA | not failed
3 | MKNVLLLGESGFVGSVVYNSLHCVCKVYTIAPNKKITIDNVFEVANDVFKSIEINNIDVVINCIAMANLDQCENNKLDCELVNTTFVTHIVDYLKDKDIKLVHISSNAVYDGLNAPYSENSLREPINYYGICKSNADYYIESNLNNYAIARPITVYGPRKIEQRDNPVSFIVKKILSGESFDLVDDNIVNMIHVEDLSNAIKKLSLSDLKGVYNLSGDVSECRYDLGIRIAKIMGSDLNKINKVSGSNFKMAAKRPYNTSFDNKKMKSVLNIEPKNIDIAISEILNAKAY | failed
4 | MKNYQKMSVAQDARVELHDSLALTGAEVSINHLPAGAGVPFVHSHKQNEEIYGILSGKGFITIDGEKIELQAGDWLRIAPDGKRQISAASDSPIGFLCIQVKAGSLEGYTMTDGVVQLEHHHHHH | not failed
5 | MKPFMNNTKQLKRPLLNKQELALFAATILWGITFLVIHIAVRYSGPLFFVGFRFMVASLICGAIFWRSLKGITVYEIFAGMAIGLGMFLGYALQATGLQTIISSQSAFITALYVPIVPILQWIVFKKPPRLACWLGIIFAFIGLILISGKKSGSFDFSKGEILTLLGALAIAGEVILIGIFAHKVDSRRVTIIQLFFSGLFSFFCMPFIGESIPPFSWVWLNIGIGLALMSAIIQLAMNWAQKSISPTRATLIYAGEPVWAGIVGRLAGEHLSPLALLGGALILIGIVVAELQPSQWRKKKNNLKK | failed
6 | MKPIRYTIAPAAPEAHLFTVTVTVDAPDPQGQRFSLPAWIPGSYMIREFARNIVRIEAMCGERAVRLAKLDKHTWQAAPCSGPLTVSYDVYAWDLSVRAAHLDPTHGFFNGTSVFLRVEGGEQVRCLVDIQPPAGDAYRGWRVATALREASGRVQGRVGAKRYGFGWYEAADYDELIDHPVEMGTFALVSFEACGAQHDAVFTGRVPNLDLERIARDFKRICEAQIRLFEPHTAAAPFLDSNRRYVFMTMVTTDGYGGLEHRASTALICARNDLPVTGRDETTEGYRTFLGLVSHEYFHTWNVKRIKPAVFVPYALDREVHTPLLWLFEGFTSYYDDLMLVRSGLISEAQYLEMLAKTWNGVLRGSGRLKQSVAESSFDAWTKYYRQDENAPNAIVSYYTKGSLVALALDLTIRTQTGGEHSLDDVMRALWAAGGRDFYAPGHAQRGVTEAELIALMEETTGLRLRTLVRQLAEGRDDPPLPALFKAIGVTATRKPAEAALGLGAKVGAENGFVKLLQVFDGGPAQRAGLSAGDLVVAVDGLRVLSGQLDKSLARHRAGDTVPVHVFRRDELMQLDVTLSADATPQFALALSAEPSPLRSAWLGKRAAARGARPAKSRSAA | failed
7 | MKPLRTRFLRWRGAAAGGLLAGALLASPAWAAKQADWWVYVHNDKARDIGALLAAGADPNVRYDNGQPAIMRAVVDNAWEVFDVLAANRRTDLNAENPAGETPLMYLAVAGQTERAQALIARGAQVNRLGWTPLHYAASKGRLETARMLLGKQALVNAPSPDGTTPLMMAAYSGDRRMVQLLLDAGADITTRNLKGMSAADWAAFGKSEALARELKPMIARAEAERQARHGAVATSKLAPAAETPPTAQPAAASAAASQPGEGRSLSGVSGVRLNSYD | failed
8 | MKPNIVLIMVDQMRGDCLGVNGNEFIETPNLDMMATEGYNFENAYTAVPSCIASRASILTGMSQKSHGRVGYEDGVSWNYENTIASEFSKAGYHTQCIGKMHVYPERNLCGFHNIMLHDGYLHFARNKEGKASTQIEQCDDYLKWFREKKGHNVDLIDIGLDCNSWVSRPWGYEENLHPTNWVVNESIDFLRRRDPSKPFFLKMSFVRPHSPLDPPKFYFDMYKDEDLPEPLMGDWANKEDEENRGKDINCVKGIINKKALKRAKAAYYGSITHIDHQIGRFLIALSEYGKLNNTIFLFVSDHGDMMGDHNWFRKGIPYEGSARVPFFIYDPGNLLKGKKGKVFDEVLELRDIMPTLLDFAHISIPDSVEGLSLKDLIEERNSTWRDYIHGEHSFGEDSNHYIVTKKDKFLWFSQRGEEQYFDLEKDPKELTNLINSEEYKERIDYLRKILIKELEGREEGYTDGNKLLKGYPVSTLKHIR | failed
9 | MKPRGICFFDMDGTLLNSESKVLDTSLQALDKLRENNVIPVIATGRTLIEISHQMKITGIESAVMMNGQMAIFEGEKVYEDVIDADLLDRLTEEAKSQNVEVCYYNDKRIGATASTPVVKAHYDFLGEPMPKVRPNMYKEETINMALLLLETGDDYFPERFPELQFVRNTPFSNDVLRKGGSKAVGISKLLEVMGYQDVPTYAFGDGMNDLEMFGAVDYAIAMENAVPLLKEKADFVTKDNNSDGIMLGLKQFDLI | failed
10 | MKPRISVIIPTYNREELLRRAIESVLDQTFDDFEILVIDGAKSESTRELVRSFGDGRIRYIPQKGKGIANARNLGVSKARGEFIAFLDDDDRWRRDKLELQLELFKVLPQSYGVVYTAFTYYYLEKDKVLGIKHPRASGDVYKHLLKDNITGTSTIMVKRECFKKVGLFREDFVTCEDWDMWLRMAKVCYFGAIDEPLVDYSIHSGQFSFAKYLEGRYKMIEKHLDIKRNPRVLSYHLLQIGVLKLFSGDKRGVEDLLKAFRLNPTIRGNIWDILSSFVDVRTRIYILKFLGRLLEHHHHHH | not failed
11 | MKPSGEDQAALAAGPWEECFQAAVQLALRAGQIIRKALTEEKRVSTKTSAADLVTETDHLVEDLIISELRERFPSHRFIAEEAAASGAKCVLTHSPTWIIDPIDGTCNFVHRFPTVAVSIGFAVRQELEFGVIYHCTEERLYTGRRGRGAFCNGQRLRVSGETDLSKALVLTEIGPKRDPATLKLFLSNMERLLHAKAHGVRVIGSSTLALCHLASGAADAYYQFGLHCWDLAAATVIIREAGGIVIDTSGGPLDLMACRVVAASTREMAMLIAQALQTINYGRDDEK | not failed
12 | MKPTLLVLAAGMGSRYGGVKQIAAVGRHDETLLDYAVYDAMNNGFGKVVFIIREDIENDFRERFFNRIARNCNADYVFQSMDGFLTDEQIKRAVNRKKPWGTAHAILSAELKINEPFAVINADDYYGRSAYKTIATHLSTLSNDSTEHAMVGYILDKTLSRSGSVSRGVCQVGNGYLIGITEHKDIAYKKEGSVEKIVSEHEGKTVEFSGKETVSMNLFGFSPKIFDFMNEYFKDFIHKYAESEKAECLLPEGVGAMMKKGLGKVKVYTTTERWFGMTYPEDREIVKKELENKVKEGYYPEFLWR | failed
13 | MKPVAPRSFFAMDFLEFITAWEGKWLSQRTNYSFEQNEAGNAKSDVTVQRWDSQTELGRSLLERAGLKNQGELILLQLSWDNSVDWGKSKQKGTIYYGFLPDADHGDRGQLWRGTTNSNLAFLRGDYHLGSDECLTLNLGDGETSLTERHWYASPNLRLRTSLIQQGEGYSHSAFYSDIRRLPPAE | failed
14 | MKQEEEPWIDHLKQRVNEYEKPLPENDWNHFQTEFFTPYLHKRRRMKTMRIAAVFFLIFIPFATTFYFLQTEKHEAASPVVSLPACQPRSITGSPSIMPENKLLQDRTKSKTASLTRPPIQTSIHTDTANNIETECMPPVQDTIRDTESVHKRPSGHKHFALPYKRSGYTLALAISAGNNGASTGFINKTFSRGDIGSSHKDEIMYWSDFKDYLQEYPSDFPDAQAYEALLQIANDNTGRPMTEYTHYNLPVSIELSLRKSISRHWGVSAGLQYTYLSSESSIGEDSKWVKRQKLHYIGLSVKLDRRLYTTRTFSFYATGGGTIDKSVSGKLEQDFIVQKEKIYSSTENLKIKPFQFSIHAALGIQYNINPTLGAFIEPGTVFYFKDGSFKNTIRDKHPLHFNLQLGVRWNY | failed
15 | MKQEFVAAIEIDGTGRIHVTPGESQFPYIYREAMEVSWNESTRSLHSPVPREWSYAQWLQQIFAAASEQGVKLVLGPNTRWVNVPNELRAELTHAAAA | not failed
16 | MKQGKISDYVNPVPIKITDDKAIFKVEKLVPTPYIERVLPLEYAPLYEQLAELDTAIPKIVCLEKSDRLTVIEEYIDSPRLDQYLETHKLTSAQIHDLICQLLDVLAVLHQQIPPIIHRDIKPENIFYDGQKLILADFDIARNMQEDADRDTRILGSVGYAAPEQFGFSQSGPASDFYAVGVLMNVLYTGYLPSVRLYKGPEREIIEKATHINSQKRYQSAQEFKDAITGLGRSSWLLPGFRSHQPARMLTAGCGYLLMLFSSFSMDAKSDSAADSFLLRLSFFMVLFLIVLFACNYRNIKSICLFHSSKSKFTRACGIIISYLLVATVLTTALAALSVAISSFGH | failed
17 | MKQGPSSEDDCFSLLKQFEHVLESDPLIDEVGFIHPSQFTMLDKEAGFSNEFQPNNGTSSKFWNQDHKLGISTDILVQLCKDAKHVFLLALQEYKSHGNACDESQIKNISCSPCIPESDVMKHSQSVLLLSSDFGTAWNARKLILSKKDHLSAFTEELRLSGLILSNSPKSESTWSHRRWIIKMISQSFSTLQEIITKESELVESIGERSKMNYRAWYHRCWLVSYMTIEQVIQELNKSKRWAGLHVADSSCFHYRRVRAAYSVDVIVRLMLKILESLYVKGSSAYDKTEARKIWKEELDWNEELVERYVGREALWLHRRFLSLNWIMYFACNHSDASPETGESIIMNEEIAIFIDNEIRLLDSSMTVPDTKFEDFQAQALHAAVYTLWLTKSIPVLWRMLEEKLGTEKVKCVLNTIAQERPSLLHHLVNV | failed
18 | MKQHILVLEDANQRRTIILDEQQYSIGRHSGTSIQIHSRQASRHHATLMRKTNSKTNEECFWIIDGDLEGNKSQNGVFVNGEKRLIHELKNGDLINFGCSINASYHVTGEGFGESSSQPVEILPQTSPYNEAVSAQIASSYNTREGVDLLAGSNDETFHEQSYLDTATDLPNQTLFLEYLNIALSNARRHHAQVGVLLCQINNWSDLKRKRGDAVANAFLQEAGQKLKSNLRNGDIVSRWDKDEFIFLVSKVQDTSSLLGIAQRLMKPVLAPVTAGGRPFQPEITYGVALYPVDGEQVNDLIGHIRENLQQLLPQPTNPGSGEADDHIETAVDVRIGAPQPVPGLSDSDQKRLAIVEKRLLRALEQHELELYYQPQINWRKKTIEAMEAFIRWQHPQKGLLPPGQFLPWSDQTEFMVPLTRWILETACQQNVLWQQQLQTPFLVSVNISEKQFYHPLLKNMVMEAIAMAKMETHYLELEIQESTVMKDFGLAQQIITNLHNYGVGFSLDDFGTDYMSLRCLQDLPFQKLKIDKSLTAQLLEQTDNVPNLTMMETLINLGKTFNLKVVAEGVEQEEQINILDSLNCFFMQGYCFSEPLNILAANSFLHKYIAGN | failed
19 | MKQIIDIENWERKENFNFFRHFQNPQLSITSEVECGGARQRAKAAGQSFFLHYLYAVLRAANEIPEFRYRIDPDGRVVLYDTIDMLSPIKIKENGKFFTTRFPYHNDFDTFYQEARLIIDAIPEDGDPYAAENEEVADGDYGLILLSATPDLYFTSITGTQEKRSGNNYPLLNAGKAIIREGRLVMPIAMTIHHGFIDGHHLSLFYKKVEDFLK | not failed
20 | MKQKELWINQIKGLCICLVVIYHSVITFYPHLTTFQHPLSEVLSKCWIYFNLYLAPFRMPVFFFISGYLIRRYIDSVPWGNCLDKRIWNIFWVLALWGVVQWLALSALNQWLAPERDLSNASNAAYADSTGEFLHGMITASTSLWYLYALIVYFVVCKIFSRLALPLFALFVLLSVAVNFVPTPWWGMNSVIRNLPYYSLGAWFGATIMTCVKEVPLRRHLLMASLLTVLAVGAWLFTISLLLSLVSIVVIMKLFYQYEQRFGMRSTSLLNVIGSNTIAIYTTHRILVEIFSLTLLAQMNAARWSPQVELTLLLVYPFVSLFICTVAGLLVRKLSQRAFSDLLFSPPSLPAAVSYSR | failed
